This is an account of results in PMC10240976 (Autophagy, 2022).

What is called Kd is the free concentration of one partner at which half of the binding sites on the other are occupied at equilibrium, for simple one-to-one binding.

B1: LIR(TP[T]) peptide (peptide)
peptide: DGTLIIDLPDSY
notes: also called TP53INP2 peptide; source: synthetic peptide (Cosmo Bio), purified by SEC
B2: LIR(BNIP3)-GFP (domain or fragment)
chain: GMQEESLQGSWVELHFSNNGNGGSV
notes: source: HKO HeLa cells, transfected, in cells; not shown: GFP, C-terminal, kept
B3: LIR(FUNDC1)-GFP (domain or fragment)
chain: PQDYESDDDSYEVLDLTEYARRHQW
notes: as for B2
B4: LIR(JMY)-GFP (domain or fragment)
chain: FALEETLESDWVAVRPHVFDEREKH
notes: as for B2
B5: LIR(TP)-GFP (domain or fragment)
chain: FVSEEDEVDGWLIIDLPDSYAAPPS
notes: also called TP53INP2 (TP); source: HKO HeLa cells, transfected, in cells; not shown: GFP, C-terminal, kept
B6: LIR(TBC1D25)-GFP (domain or fragment)
chain: PSEDSPLLEDWDIISPKDVIGSDVL
notes: as for B2
B7: LIR(4B)-GFP (domain or fragment)
chain: ERFFDSEDEDFEILSL
notes: also called ATG4B (4B); source: HKO HeLa cells, transfected, in cells; not shown: GFP, C-terminal, kept
B8: LIR(PLEKHM1)-GFP (domain or fragment)
chain: QKVRPQQEDEWVNVQYPDQPEEPPE
notes: as for B2
B9: LIR(St)-GFP (domain or fragment)
chain: NSQDRVDHEEWEMVPRHSSWGDVGV
notes: also called STBD1 (St); source: HKO HeLa cells, transfected, in cells; not shown: GFP, C-terminal, kept
B10: LIR(ULK1)-GFP (domain or fragment)
chain: SKDSSCDTDDFVMVPAQFPGDLVAE
notes: as for B2
B11: LIR(UBR4)-GFP (domain or fragment)
chain: QEQSEVDHGDFEMVSESMVLETAEN
notes: as for B2
B12: LIR(TP53INP1)-GFP (domain or fragment)
chain: PEFNEKEDDEWILVDFIDTCTGFSA
notes: as for B2
B13: LIR(ATG4A)-GFP (domain or fragment)
chain: QLEEFDLEEDFEILSV
notes: as for B2
B14: LIR(ULK2)-GFP (domain or fragment)
chain: SKNSSCDTDDFVLVPHNISSDHSCD
notes: as for B2
B15: LIR(WDFY3/ALFY)-GFP (domain or fragment)
chain: DQLSLDEKDGFIFVNYSEGQTRAHL
notes: as for B2
B16: LIR(ATG4C)-GFP (domain or fragment)
chain: KQLKRFSTEEFVLL
notes: as for B2
B17: LIR(ATG4D)-GFP (domain or fragment)
chain: LRAKRPSSEDFVFL
notes: as for B2

The target in the first test is LC3A (purified, for ITC). Kind of test: ITC. The conditions noted are these: both partners purified.
For B1, the dissociation constant (Kd) was greater than 132 µM.

For a further test, the target named is T1, mRFP-GABARAPL1 (UniProt Q9H0R8 1-117).
T1 construct: also called membrane-anchored GABARAPL1
T1 sequence (Q9H0R8 whole entry): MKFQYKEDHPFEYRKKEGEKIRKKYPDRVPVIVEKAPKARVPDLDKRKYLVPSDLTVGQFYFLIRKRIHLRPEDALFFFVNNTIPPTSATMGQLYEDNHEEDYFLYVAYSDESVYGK
Briefly: recruitment of LIR-GFP or gProbe to mRFP-mATG8-containing autophagic membranes (A:C ratio), microscopy; LIR(X)-GFP or gProbe-X co-expressed with one mRFP-mATG8 in HKO HeLa cells; 100 nM BafA1 in EBSS for 2 h; fixed in 4% PFA; autophagosome:cytosol GFP ratio normalized to GFP-expressing cells. The conditions noted are these: partners not purified.
Turning to B2, the “normalized A:C ratio” value came out at 1.45.

For the molecule B3, the “normalized A:C ratio” value was determined as 1.96.

Another test concerns the target T1, mRFP-GABARAPL1. Kind of test: recruitment of LIR-GFP or gProbe. Also on record: unit not given here. The conditions noted are these: partners not purified.
Regarding B4, the other is 1.46.

In turn, B5 yielded an other of 5.

As for B6, the other stood at 1.41.

Molecule B7 registered an other of 2.19.

The molecule B8 returned an other of 1.86.

Consider B9, for which the other stood at 5.08.

For B10, the other stood at 1.58.

On to B11, for which the other is 2.81.

In the case of B12, the other worked out at 2.43.

The molecule B13 had an other of 2.18.

The molecule B14 gave an other of 2.5.

Regarding B15, the other came out at 3.06.

B16: the other amounted to 2.93.

Turning to B17, the other is 2.65.
